Assay results reported in patent US20240377400A1, “METHODS FOR TREATING A SUBTYPE OF COLORECTAL CANCER” (Cornell University, priority 2021, published 2024).

Columns and labels:
[1] = system: Prkci^f/fPrkcz^f/f; Villin-Cre tumors; experiment: Endogenous Prkci^f/fPrkcz^f/f; Villin-Cre tumors treated with PEGPH20: histology, tumor burden, Quant-seq; format: in vivo, mouse
Procedure: FIGS. 9E-9O illustrate Prkci^f/fPrkcz^f/f; Villin-Cre mice (mOle and female, 11-week-old) treated with Veh (n=10) or PEGPH20 (n=12), 0.0375 mg/kg for 3 weeks. Experimental design (E); IHC HA, Masson's trichrome, and αSMA(F); staining quantification (n=5) (G); macroscopic images of tumors (H); total tumor number, tumor size, and tumor load (I); quantification of cancer incidence (J); and sessile serrated lesions (SSL) and carcinoma quantification of tumors (K). Scale bars, 50 μm (F), 10 mm (H). The red arrow denotes tumors>5 mm (H). (L-N) GSEA of transcriptomic data from Quant-seq on PEGPH20-treated tumors versus Veh (n=3) using compilation H (MSigDB) (L), stroma-related signatures (M) and serrated-related signatures (N). (O) GSEA plots of the indicated gene signatures for PEGPH20-treated tumors versus Veh (n=3). Results are shown as mean±SEM *p<0.05, **p<0.01, ***p<0.001, ****p<0.0001. See also FIG. 16.
Animal handling and experimental procedures conformed to institutional guidelines and were approved by the Sanford-Burnham-Prebys Medical Discovery Institute Institutional Animal Care and Use Committee, and by the Weill Cornell Medicine Institutional Animal Care and Use Committee. Prkci^f/fPrkcz^f/f, Villin-Cre, Prkci^f/fPrkcz^f/f; Villin-Cre and Villin-CreERT2 mice were previously described (el Marjou et al., 2004; Madison et al., 2002; Nakanishi et al., 2018) Prkci^f/fPrkcz^f/f; Villin-CreERT2 mice were generated by breeding Prkci^f/fPrkcz^f/f mice with Villin-CreERT2 (Jackson Laboratory, stock number 020282) mice. All mouse strains were generated in a C57BL/6 background and were born and maintained under pathogen-free conditions. For PEGPH20 treatment, 11-week-old Prkci^f/fPrkcz^f/f; Villin-Cre were retro-orbitally injected twice a week for 3 weeks with a dose of 0.0375 mg/kg of PEGPH20 (Halozyme Therapeutics), until they were sacrificed. Control mice were treated with vehicle. For xenograft experiments, 6-7 week-old male C57BL/6 were purchased from Charles River Labs (Wilmington, MA, USA). All mice were maintained on food and water ad libitum and were age-matched and co-housed for all experiments. Mice were sacrificed and small intestine, colon, tumors or other organs were collected for analysis. All genotyping was done by PCR. Age- and sex-matched mice were used for all experiments
Tissues from indicated mice were isolated, rinsed in ice-cold PBS, fixed in 10% neutral buffered formalin overnight at 4° C., dehydrated, and embedded in paraffin. Sections (5 μm) were stained with hematoxylin and eosin (H&E). For immunohistochemistry, sections were deparaffinized, rehydrated, and then treated for antigen retrieval. After blocking in Protein Block Serum-Free solutions (DAKO), tissues were incubated with primary antibody overnight at 4° C. followed by incubation with biotinylated secondary antibody. Endogenous peroxidase was quenched in 3% H2O2 in water for 10 minutes at room temperature. Antibodies were visualized with avidin-biotin complex (Vectastain Elite; Vector Laboratories) using diaminobenzidine as the chromogen. Stained sections were analyzed with a Zeiss light microscope supplemented with Zen 3.3 Bule edition software. For immunofluorescence, the signal was visualized using the OPAL™ 4-Color Manual IHC Kit (Akoya Biosciences, MA), which allows simultaneous detection of multiple targets in the same image. Fluorophores Opal 520, Opal 570, and TSA Plus Cyanine 5 were used, and the sections were counterstained with Spectral DAPI.
Total RNA was extracted using Quick-RNA MiniPrep kit (Zymo Research). Libraries were prepared from 200 ng of total RNA using the QuantSeq 3′ mRNA-Seq Library Prep Kit FWD for Illumina from Lexogen, and optional UMIs (Vienna, Austria). Barcoded libraries were pooled, and single end sequenced (1×75) on the Illumina NextSeq 500 using the High output V2.5 kit (Illumina Inc., San Diego CA).
For 3′RNA-Seq, read data was processed with the BlueBee Genomics Platform (BlueBee, San Mateo, CA). […]

pancreatic cancer = pancreatic cancer patients; cited from earlier work
[2] = small intestine, PEGPH20 0.0375 mg/kg, 3 weeks

B1: PEGPH20: a PEGylated version of human recombinant PH20 hyaluronidase; clinical-grade pegylated hyaluronidase (Halozyme Therapeutics) (protein, UniProt P38567 36-490, looked up)
Hyaluronidase PH-20: LNFRAPPVIPNVPFLWAWNAPSEFCLGKFDEPLDMSLFSFIGSPRINATGQGVTIFYVDRLGYYPYIDSITGVTVNGGIPQKISLQDHLDKAKKDITFYMPVDNLGMAVIDWEEWRPTWARNWKPKDVYKNRSIELVQQQNVQLSLTEATEKAKQEFEKAGKDFLVETIKLGKLLRPNHLWGYYLFPDCYNHHYKKPGYNGSCFNVEIKRNDDLSWLWNESTALYPSIYLNTQQSPVAATLYVRNRVREAIRVSKIPDAKSPLPVFAYTRIVFTDQVLKFLSQDELVYTFGETVALGASGIVIWGTLSIMRSMKSCLLLDNYMETILNPYIINVTLAAKMCSQVLCQEQGVCIRKNWNSSDYLHLNPDNFAIQLEKGGKFTVRGKPTLEDLEQFSEKFYCSCYSTLSCKEKADVKDTDAVDVCIADGVCIDAFLKPPMETEEPQIFYNASPSTLS
modifications: PEGylated
[1]; GSEA of Quant-seq, treated versus Veh
  signatures related to invasion and tumor progression (EMT, myogenesis, angiogenesis, TGFβ signaling), stromal activation, serrated tumorigenesis and the CMS4 subtype: decrease
[1]; GSEA of RNAseq, endogenous tumors
  IFN and allograft rejection signatures: enrichment
[1]; PEGPH20 0.0375 mg/kg twice a week, 3 weeks, IHC
  stromal HA accumulation: eliminated
[1]; PEGPH20 0.0375 mg/kg, 3 weeks
  cancer incidence in the small intestine: lower
  invasive carcinomas: reduced
  sessile serrated lesions (SSL): fewer
[1]; PEGPH20 0.0375 mg/kg, 3 weeks, Masson's trichrome, IHC
  collagen deposition and αSMA expression: reduced
[1]; figure legend title, FIGS. 16A-16E
  intestinal and colon tumors: reduces
[1]; proximal colon tumors
  colon tumorigenesis: reduced
[1]; [2]
  average tumor size: significant reduction
  tumor load: significant reduction
  tumor number: significant reduction
Pancreatic cancer
  duration of response or progression-free or overall survival: no improvement
  response rate in the experimental arm: higher
